B1: Polypeptide No. 277 (scFv, V domains shown)
VH: QVQLVQSGAEVKKPGSSVKVSCKASGYTFTGYYMHWVRQAPGQGLEWMGWIDPNSGGTNYAQKFQGRVTITADESTSTAYMELSSLRSEDTAVYYCARDVDTAMVTDYWGRGTLVTVSS
VL: EIVMTQSPATLSVSPGERATLSCRASQSVDNLVGWYQQKPGQAPRLLIYDISSRATGIPARFSGSGSGTEFTLTISSLQSEDFAVYYCQQYGRSPITFGQGTRLEIKR
B2: Polypeptide No. 258 (scFv, V domains shown)
VH: QVQLVQSGAEVKKPGASVKVSCKASGGTFGSYAISWVRQAPGQGLEWMGWINPNTGGAHYAQKFQGRVTMTRDTSTSTVYMELSSLRSEDTAVYYCARVGAAAGYQHWGQGTLVTVSS
VL: DIQMTQSPSSLSASVGDRVTITCRASQSIKGALAWYQQKPGKAPKLLIYSASNLQSGVPSRFSGSGSGTDFTLTISSLQPEDFATYYCQQYNSYPLTFGGGTKVEIKR
B3: Polypeptide No. 264 (scFv, V domains shown)
VH: QVQLVQSGAEVKKPGSSVKVSCKASGYTLTELSMHWVRQAPGQGLEWMGGIIPISSATSIPQKFQGRVTITADESTSTAYMELSSLRSEDTAVYYCARGALYSSSPVRVVAGTKGWFDPWGQGTLVTVSS
VL: B2 VL with S28D, K30S, G31N, A32Y, S50A, N53S, N92Y
B4: Polypeptide No. 236 (scFv, V domains shown)
VH: QVQLVQSGAEVKKPGSSVKVSCKASGGTFSSYAISWVRQAPGQGLEWMGGIIPILGIANYAQKFQGRVTITADESTSTAYMELSSLRSEDTAVYYCAHVDGYGMDVWGQGTTVTVSS
VL: EIVMTQSPATLSVSPGERATLSCRASQSVSSNLAWYQQKPGQAPRLLIYDVSSRATGIPARFSGSGSGTEFTLTISSLQSEDFAVYYCQQLDAYPLTFGGGTKVEIKR
B5: Polypeptide No. 266 (scFv, V domains shown)
VH: QVQLVQSGAEVKKPGSSVKVSCKASGYSLTELSIHWVRQAPGQGLEWMGGINPISGTANYAQKFQGRVTITADESTSTAYMELSSLRSEDTAVYYCARGTVRLNWFDPWGQGTLVTVSS
VL: B4 VL with S30G, N32Q, A34G, D50G, V51A, S53T, L91S, D92F, A93S, Y94T
B6: Polypeptide No. 251 (scFv, V domains shown)
VH: QVQLVQSGAEVKKPGSSVKVSCKASGGTFSSDAINWVRQAPGQGLEWMGGIIPIVGTPTYAQKFQGRVTITADESTSTAYMELSSLRSEDTAVYYCAKGLAFGVFDGLDVWGQGTTVTVSS
VL: EIVMTQSPATLSVSPGERATLSCRASQSVSSNYLAWYQQKPGQAPRLLIYDVSTRATGIPARFSGSGSGTEFTLTISSLQSEDFAVYYCQQYGSSTLTFGGGTKVEIKR
B7: Polypeptide No. 289 (scFv, V domains shown)
VH: QVQLVQSGAEVKKPGASVKVSCKASGYTFTSYGISWVRQAPGQGLEWMGWMNPISGNTDYAPNFQGRVTMTRDTSTSTVYMELSSLRSEDTAVYYCVVERRREVGMDVWGQGTTVTVSS
VL: DIQMTQSPSSLSASVGDRVTITCQASQGITSYLNWYQQKPGKAPKLLIYKASSLESGVPSRFSGSGSGTDFTLTISSLQPEDFATYYCQQGYSTPLTFGGGTKVEIKR
B8: Polypeptide No. 255 (scFv, V domains shown)
VH: QVQLVQSGAEVKKPGSSVKVSCKASGYTLTELSMHWVRQAPGQGLEWMGGIIPISGTVTYAQKFQGRVTITADESTSTAYMELSSLRSEDTAVYYCANKGQQLVRGYFQHWGQGTLVTVSS
VL: DIQMTQSPSSLSASVGDRVTITCQASHDIRNSVNWYQQKPGKAPKLLIYATSSLQSGVPSRFSGSGSGTDFTLTISSLQPEDFATYYCQQSYNTPFTFGQGTKLEIKR
B9: Polypeptide No. 267 (scFv, V domains shown)
VH: QVQLVQSGAEVKKPGSSVKVSCKASGYTLTSFGISWVRQAPGQGLEWVGMIIPLSGTTHYAQKFQGRVTITADESTSTAYMELSSLRSEDTAVYYCANLYGGNAYYYYGMDVWGQGTTVTVSS
VL: B8 VL with Q24R, H27Q, R30S, S32F, N34A, T51A, Y92F, N93D, F96Y

Numbering of substitutions follows the chain as printed. Some results are limits rather than exact numbers.

The target in one test is huFLT3-M227 stably expressed on Ramos cells (human) (UniProt P36888). The test can be described thus: FACS on cells.
Regarding B1, the FACS geometric mean fold change over Jurkat parental was < 2 fold.
For the molecule B2, the FACS geometric mean fold change over Jurkat parental is < 2 fold.
In the case of B3, the FACS geometric mean fold change over Jurkat parental is < 2 fold.
Consider B4, for which the FACS geometric mean fold change over Jurkat parental is < 2 fold.
For the molecule B5, the FACS geometric mean fold change over Jurkat parental is < 2 fold.
In the case of B6, the FACS geometric mean fold change over Jurkat parental was < 2 fold.
In the case of B7, the FACS geometric mean fold change over Jurkat parental is < 2 fold.
The same measure, in the same setting: in the case of B8 it was < 2 fold; in that of B9, < 2 fold.

Another test deals with huFLT3-T227 stably expressed on Ramos cells (human) (UniProt P36888). As to the kind of experiment: FACS on cells.
As for B1, the FACS geometric mean fold change over Jurkat parental was < 2 fold.
Still for that read-out and setting: the value for B2 was < 2 fold; that for B3 was < 2 fold; that for B4 was < 2 fold.
On the same count and under the same terms, in the case of B5 it was < 2 fold; in that of B6, < 2 fold.
On to B7, for which the FACS geometric mean fold change over Jurkat parental was < 2 fold.
On to B8, for which the FACS geometric mean fold change over Jurkat parental is < 2 fold.
Turning to B9, the FACS geometric mean fold change over Jurkat parental was < 2 fold.

These data come from patent US20240101668A1.
